The record followed here is patent US20120294865A1 (REGENTS OF THE UNIVERSITY OF MICHIGAN, published 2012).

The target in test [1] is T1, peptide of SEQ ID NO: 32 (YANNPRVVFNLNTYK) (human).
T1 construct: 15-mer on a peptide microarray (ProImmune)
T1 peptide: YANNPRVVFNLNTYK
Nature of the test: peptide microarray, fluorescent secondary antibody. The protocol:
(§1) Epitope mapping was performed by incubating monoclonal antibody (mAb) samples with a peptide microarray, followed by incubation with a fluorescent-labelled secondary antibody. After washing, the microarray was scanned in a high-resolution scanning system. The peptide microarray consisted of a set of 15-mer peptides overlapping by 10 residues taken from the human alpha-2 integrin subunit (Genbank accession number AAM34795.1; amino acid residues 1-1133 were used). Peptide arrays, antibody incubations, scanning and data analysis were generated by ProImmune Inc, 4281 Express Lane, Suite L2378, Sarasota, Fla. 34238.

Test [2] has as its target T2, peptide of SEQ ID NO: 33 (AIASIPTERYFFNVS) (human).
T2 construct: 15-mer on a peptide microarray (ProImmune)
T2 peptide: AIASIPTERYFFNVS
Nature of the test: peptide microarray, fluorescent secondary antibody. The procedure: as §1

B1: Ab 770.8 (antibody, V domains shown)
VH: EVKLEESGTVLARPGASVKMSCKASGYSFTSYWMHWVKQRPGQGLEWIGAFYPGNSEDKYNENFKIKAKLTAVTSVNTVYMELSSLTSEDSAVYYCTRGTTLVAPGFDVWGAGTTVTVSS
VL: DIVMTQSPAILSVSPGERVSFSCRASQSIGTSIHWYQQRTNGSPRLLIKYVSESISGIPSRFSGSGSGTDFTLTINSVESEDIADYYCQHSNRWPLTFGAGTKLELKR
notes: Mouse monoclonal antibody from a hybridoma, used as ascites or purified
Consider B1, for which the binding result in test [1] and in test [2] was “binds” in each case.

B2: Ab 778.17 (antibody, V domains shown)
VH: QVQLQQPGAELVRPGTSVKLSCKASGYTFASYWMNWVSQRPEQGLEWIGRIDPYDSETHYNQKFKDKAILTVDKSSSTAYIQLNSLTSEDSAVYYCARLGRGPFAYWGQGTLVTVSA
VL: DIVMTQTPTSLAVSLGQRATISCRASESVDSYDNSFMYWYQQKPGQPPKLLIYFASNLESGVPARFSGSGSRTDFTLTIDPVEADDAATYYCQQNNEDPYTFGGGTKLEIKR
notes: Mouse monoclonal antibody from a hybridoma
On to B2, for which the binding result in test [1] and in test [2] was “binds” throughout.
